Test results reported in patent US20210388087A1 (Chugai, published 2021).

Each binder was assayed against T1, Human CD137 ECD (human) (assay: single mutant vs template dBBDu183H).
T1 construct: also called 4-1BB
T1 sequence (chain, as listed by the source limits assumed): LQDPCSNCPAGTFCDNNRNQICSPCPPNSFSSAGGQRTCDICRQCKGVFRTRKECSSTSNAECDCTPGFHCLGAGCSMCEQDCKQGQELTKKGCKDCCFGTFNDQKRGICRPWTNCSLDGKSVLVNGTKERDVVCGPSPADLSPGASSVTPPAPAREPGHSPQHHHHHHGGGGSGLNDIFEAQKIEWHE

Binder	fold change of affinity
H183/L072 VH K52N (antibody, name in Kabat numbering, V domains shown) VH: QVQLVESGGGLVQPGRSLRLSCAASGFTFSNAWMHWVRQAPGKGLEWVAQINDKGNAYAAYYAPSVKGRFTISRDDSKNSIYLQMNSLKTEDTAVYYCHYVHYASASTVLPAFGVDAWGQGTTVTVSS VL: DIVMTQSPLSLPVTPGEPASISCQASQELVHMNRNTYLHWYQQKPGQAPRLLIYKVSNRFPGVPDRFSGSGSGTDFTLKISRVEAEDVGVYYCAQGTSVPFTFGQGTKLEIK	0.2 fold
H183/L072 VH K52bT (antibody, name in Kabat numbering, V domains shown) VH: QVQLVESGGGLVQPGRSLRLSCAASGFTFSNAWMHWVRQAPGKGLEWVAQIKDTGNAYAAYYAPSVKGRFTISRDDSKNSIYLQMNSLKTEDTAVYYCHYVHYASASTVLPAFGVDAWGQGTTVTVSS VL: DIVMTQSPLSLPVTPGEPASISCQASQELVHMNRNTYLHWYQQKPGQAPRLLIYKVSNRFPGVPDRFSGSGSGTDFTLKISRVEAEDVGVYYCAQGTSVPFTFGQGTKLEIK	0.1 fold
H183/L072 VH K52bR (antibody, name in Kabat numbering, V domains shown) VH: QVQLVESGGGLVQPGRSLRLSCAASGFTFSNAWMHWVRQAPGKGLEWVAQIKDRGNAYAAYYAPSVKGRFTISRDDSKNSIYLQMNSLKTEDTAVYYCHYVHYASASTVLPAFGVDAWGQGTTVTVSS VL: DIVMTQSPLSLPVTPGEPASISCQASQELVHMNRNTYLHWYQQKPGQAPRLLIYKVSNRFPGVPDRFSGSGSGTDFTLKISRVEAEDVGVYYCAQGTSVPFTFGQGTKLEIK	1.2 fold
H183/L072 VH K52bV (antibody, name in Kabat numbering, V domains shown) VH: QVQLVESGGGLVQPGRSLRLSCAASGFTFSNAWMHWVRQAPGKGLEWVAQIKDVGNAYAAYYAPSVKGRFTISRDDSKNSIYLQMNSLKTEDTAVYYCHYVHYASASTVLPAFGVDAWGQGTTVTVSS VL: DIVMTQSPLSLPVTPGEPASISCQASQELVHMNRNTYLHWYQQKPGQAPRLLIYKVSNRFPGVPDRFSGSGSGTDFTLKISRVEAEDVGVYYCAQGTSVPFTFGQGTKLEIK	0.6 fold
H183/L072 VH K52bM (antibody, name in Kabat numbering, V domains shown) VH: QVQLVESGGGLVQPGRSLRLSCAASGFTFSNAWMHWVRQAPGKGLEWVAQIKDMGNAYAAYYAPSVKGRFTISRDDSKNSIYLQMNSLKTEDTAVYYCHYVHYASASTVLPAFGVDAWGQGTTVTVSS VL: DIVMTQSPLSLPVTPGEPASISCQASQELVHMNRNTYLHWYQQKPGQAPRLLIYKVSNRFPGVPDRFSGSGSGTDFTLKISRVEAEDVGVYYCAQGTSVPFTFGQGTKLEIK	0.6 fold
H183/L072 VH K52Q (antibody, name in Kabat numbering, V domains shown) VH: QVQLVESGGGLVQPGRSLRLSCAASGFTFSNAWMHWVRQAPGKGLEWVAQIQDKGNAYAAYYAPSVKGRFTISRDDSKNSIYLQMNSLKTEDTAVYYCHYVHYASASTVLPAFGVDAWGQGTTVTVSS VL: DIVMTQSPLSLPVTPGEPASISCQASQELVHMNRNTYLHWYQQKPGQAPRLLIYKVSNRFPGVPDRFSGSGSGTDFTLKISRVEAEDVGVYYCAQGTSVPFTFGQGTKLEIK	0.3 fold
H183/L072 VH K52bW (antibody, name in Kabat numbering, V domains shown) VH: QVQLVESGGGLVQPGRSLRLSCAASGFTFSNAWMHWVRQAPGKGLEWVAQIKDWGNAYAAYYAPSVKGRFTISRDDSKNSIYLQMNSLKTEDTAVYYCHYVHYASASTVLPAFGVDAWGQGTTVTVSS VL: DIVMTQSPLSLPVTPGEPASISCQASQELVHMNRNTYLHWYQQKPGQAPRLLIYKVSNRFPGVPDRFSGSGSGTDFTLKISRVEAEDVGVYYCAQGTSVPFTFGQGTKLEIK	0.9 fold
H183/L072 VH K52bN (antibody, name in Kabat numbering, V domains shown) VH: QVQLVESGGGLVQPGRSLRLSCAASGFTFSNAWMHWVRQAPGKGLEWVAQIKDNGNAYAAYYAPSVKGRFTISRDDSKNSIYLQMNSLKTEDTAVYYCHYVHYASASTVLPAFGVDAWGQGTTVTVSS VL: DIVMTQSPLSLPVTPGEPASISCQASQELVHMNRNTYLHWYQQKPGQAPRLLIYKVSNRFPGVPDRFSGSGSGTDFTLKISRVEAEDVGVYYCAQGTSVPFTFGQGTKLEIK	0.2 fold
H183/L072 VH K52bH (antibody, name in Kabat numbering, V domains shown) VH: QVQLVESGGGLVQPGRSLRLSCAASGFTFSNAWMHWVRQAPGKGLEWVAQIKDHGNAYAAYYAPSVKGRFTISRDDSKNSIYLQMNSLKTEDTAVYYCHYVHYASASTVLPAFGVDAWGQGTTVTVSS VL: DIVMTQSPLSLPVTPGEPASISCQASQELVHMNRNTYLHWYQQKPGQAPRLLIYKVSNRFPGVPDRFSGSGSGTDFTLKISRVEAEDVGVYYCAQGTSVPFTFGQGTKLEIK	0.7 fold
H183/L072 VH K52bE (antibody, name in Kabat numbering, V domains shown) VH: QVQLVESGGGLVQPGRSLRLSCAASGFTFSNAWMHWVRQAPGKGLEWVAQIKDEGNAYAAYYAPSVKGRFTISRDDSKNSIYLQMNSLKTEDTAVYYCHYVHYASASTVLPAFGVDAWGQGTTVTVSS VL: DIVMTQSPLSLPVTPGEPASISCQASQELVHMNRNTYLHWYQQKPGQAPRLLIYKVSNRFPGVPDRFSGSGSGTDFTLKISRVEAEDVGVYYCAQGTSVPFTFGQGTKLEIK	0.5 fold
H183/L072 VH K52bS (antibody, name in Kabat numbering, V domains shown) VH: QVQLVESGGGLVQPGRSLRLSCAASGFTFSNAWMHWVRQAPGKGLEWVAQIKDSGNAYAAYYAPSVKGRFTISRDDSKNSIYLQMNSLKTEDTAVYYCHYVHYASASTVLPAFGVDAWGQGTTVTVSS VL: DIVMTQSPLSLPVTPGEPASISCQASQELVHMNRNTYLHWYQQKPGQAPRLLIYKVSNRFPGVPDRFSGSGSGTDFTLKISRVEAEDVGVYYCAQGTSVPFTFGQGTKLEIK	0.8 fold
H183/L072 VH K52bL (antibody, name in Kabat numbering, V domains shown) VH: QVQLVESGGGLVQPGRSLRLSCAASGFTFSNAWMHWVRQAPGKGLEWVAQIKDLGNAYAAYYAPSVKGRFTISRDDSKNSIYLQMNSLKTEDTAVYYCHYVHYASASTVLPAFGVDAWGQGTTVTVSS VL: DIVMTQSPLSLPVTPGEPASISCQASQELVHMNRNTYLHWYQQKPGQAPRLLIYKVSNRFPGVPDRFSGSGSGTDFTLKISRVEAEDVGVYYCAQGTSVPFTFGQGTKLEIK	0.5 fold
H183/L072 VH K52bP (antibody, name in Kabat numbering, V domains shown) VH: QVQLVESGGGLVQPGRSLRLSCAASGFTFSNAWMHWVRQAPGKGLEWVAQIKDPGNAYAAYYAPSVKGRFTISRDDSKNSIYLQMNSLKTEDTAVYYCHYVHYASASTVLPAFGVDAWGQGTTVTVSS VL: DIVMTQSPLSLPVTPGEPASISCQASQELVHMNRNTYLHWYQQKPGQAPRLLIYKVSNRFPGVPDRFSGSGSGTDFTLKISRVEAEDVGVYYCAQGTSVPFTFGQGTKLEIK	0.4 fold
H183/L072 VH K52bG (antibody, name in Kabat numbering, V domains shown) VH: QVQLVESGGGLVQPGRSLRLSCAASGFTFSNAWMHWVRQAPGKGLEWVAQIKDGGNAYAAYYAPSVKGRFTISRDDSKNSIYLQMNSLKTEDTAVYYCHYVHYASASTVLPAFGVDAWGQGTTVTVSS VL: DIVMTQSPLSLPVTPGEPASISCQASQELVHMNRNTYLHWYQQKPGQAPRLLIYKVSNRFPGVPDRFSGSGSGTDFTLKISRVEAEDVGVYYCAQGTSVPFTFGQGTKLEIK	0.9 fold
H183/L072 VH K52R (antibody, name in Kabat numbering, V domains shown) VH: QVQLVESGGGLVQPGRSLRLSCAASGFTFSNAWMHWVRQAPGKGLEWVAQIRDKGNAYAAYYAPSVKGRFTISRDDSKNSIYLQMNSLKTEDTAVYYCHYVHYASASTVLPAFGVDAWGQGTTVTVSS VL: DIVMTQSPLSLPVTPGEPASISCQASQELVHMNRNTYLHWYQQKPGQAPRLLIYKVSNRFPGVPDRFSGSGSGTDFTLKISRVEAEDVGVYYCAQGTSVPFTFGQGTKLEIK	0.2 fold
H183/L072 VH K52bA (antibody, name in Kabat numbering, V domains shown) VH: QVQLVESGGGLVQPGRSLRLSCAASGFTFSNAWMHWVRQAPGKGLEWVAQIKDAGNAYAAYYAPSVKGRFTISRDDSKNSIYLQMNSLKTEDTAVYYCHYVHYASASTVLPAFGVDAWGQGTTVTVSS VL: DIVMTQSPLSLPVTPGEPASISCQASQELVHMNRNTYLHWYQQKPGQAPRLLIYKVSNRFPGVPDRFSGSGSGTDFTLKISRVEAEDVGVYYCAQGTSVPFTFGQGTKLEIK	1 fold
H183/L072 VH K52bQ (antibody, name in Kabat numbering, V domains shown) VH: QVQLVESGGGLVQPGRSLRLSCAASGFTFSNAWMHWVRQAPGKGLEWVAQIKDQGNAYAAYYAPSVKGRFTISRDDSKNSIYLQMNSLKTEDTAVYYCHYVHYASASTVLPAFGVDAWGQGTTVTVSS VL: DIVMTQSPLSLPVTPGEPASISCQASQELVHMNRNTYLHWYQQKPGQAPRLLIYKVSNRFPGVPDRFSGSGSGTDFTLKISRVEAEDVGVYYCAQGTSVPFTFGQGTKLEIK	0.8 fold
H183/L072 VH K52Y (antibody, name in Kabat numbering, V domains shown) VH: QVQLVESGGGLVQPGRSLRLSCAASGFTFSNAWMHWVRQAPGKGLEWVAQIYDKGNAYAAYYAPSVKGRFTISRDDSKNSIYLQMNSLKTEDTAVYYCHYVHYASASTVLPAFGVDAWGQGTTVTVSS VL: DIVMTQSPLSLPVTPGEPASISCQASQELVHMNRNTYLHWYQQKPGQAPRLLIYKVSNRFPGVPDRFSGSGSGTDFTLKISRVEAEDVGVYYCAQGTSVPFTFGQGTKLEIK	0 fold
H183/L072 VH K52bY (antibody, name in Kabat numbering, V domains shown) VH: QVQLVESGGGLVQPGRSLRLSCAASGFTFSNAWMHWVRQAPGKGLEWVAQIKDYGNAYAAYYAPSVKGRFTISRDDSKNSIYLQMNSLKTEDTAVYYCHYVHYASASTVLPAFGVDAWGQGTTVTVSS VL: DIVMTQSPLSLPVTPGEPASISCQASQELVHMNRNTYLHWYQQKPGQAPRLLIYKVSNRFPGVPDRFSGSGSGTDFTLKISRVEAEDVGVYYCAQGTSVPFTFGQGTKLEIK	1 fold
H183/L072 VH K52bF (antibody, name in Kabat numbering, V domains shown) VH: QVQLVESGGGLVQPGRSLRLSCAASGFTFSNAWMHWVRQAPGKGLEWVAQIKDFGNAYAAYYAPSVKGRFTISRDDSKNSIYLQMNSLKTEDTAVYYCHYVHYASASTVLPAFGVDAWGQGTTVTVSS VL: DIVMTQSPLSLPVTPGEPASISCQASQELVHMNRNTYLHWYQQKPGQAPRLLIYKVSNRFPGVPDRFSGSGSGTDFTLKISRVEAEDVGVYYCAQGTSVPFTFGQGTKLEIK	0.7 fold
H183/L072 VH K52bI (antibody, name in Kabat numbering, V domains shown) VH: QVQLVESGGGLVQPGRSLRLSCAASGFTFSNAWMHWVRQAPGKGLEWVAQIKDIGNAYAAYYAPSVKGRFTISRDDSKNSIYLQMNSLKTEDTAVYYCHYVHYASASTVLPAFGVDAWGQGTTVTVSS VL: DIVMTQSPLSLPVTPGEPASISCQASQELVHMNRNTYLHWYQQKPGQAPRLLIYKVSNRFPGVPDRFSGSGSGTDFTLKISRVEAEDVGVYYCAQGTSVPFTFGQGTKLEIK	0.8 fold
